Target: mlp3a_human MAP1LC3A (UniProt Q9H492)

Toll-interacting protein (Homo sapiens) (from UniProt Q9H0E2) W133A;T134A;H135A;I136A
effect of a mutation on the interaction: decreasing interaction strength

Toll-interacting protein (Homo sapiens) (from UniProt Q9H0E2) W133A;T134A;H135A;I136A;W151A;Y152A;S153A;L154A
effect of a mutation on the interaction: disrupting interaction strength

Toll-interacting protein (Homo sapiens) (from UniProt Q9H0E2) W151A;Y152A;S153A;L154A
effect of a mutation on the interaction: decreasing interaction strength
